This is an account of results in publication PMC5382683, “Identified of a novel cis-element regulating the alternative splicing of LcDREB2”.

In the data set the target is T1, RSZp21b (Oryza sativa, UniProt Q6K4N0 1-185).
T1 sequence: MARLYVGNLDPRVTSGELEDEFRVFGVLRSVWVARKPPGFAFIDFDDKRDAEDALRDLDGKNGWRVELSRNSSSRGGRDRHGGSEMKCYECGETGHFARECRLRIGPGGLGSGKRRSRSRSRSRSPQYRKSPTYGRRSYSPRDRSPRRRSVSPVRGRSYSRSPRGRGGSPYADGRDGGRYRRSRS
The data set is described as follows: EMSA; LightShift Chemiluminescent EMSA Kit (Pierce 20158) per manufacturer; 100-fold unlabeled probe as competitor; buffer, salt, pH, temperature not stated. The settings on record: protein: recombinant; tags: His (pET30a, Ni column).

Take ACUCUUGGCGCAGCAAAAGGGAGAUGCGC (ssRNA) [E3-2]: the binding result was “binds”.
